Measurements taken from US20100204147A1, “Methods For Delivering Thymosin Beta 4, Analogues, Isoforms and Other Derivatives” (REGENERX BIOPHARMACEUTICALS, INC., priority 2003, published 2010).

How the values were obtained:
[1] = target: T1, recombinant γ-module (residues γ148-411) (Homo sapiens, UniProt P02679); experiment: ELISA and kinetic analysis of incorporation into immobilized γ-module; format: biochemical
T1 construct: comprising residues 148-411 of the human fibrinogen γ chain; made in house; host or cells: E. coli, pET20b expression vector
T1 sequence (P02679 174-437 isoform P02679-2): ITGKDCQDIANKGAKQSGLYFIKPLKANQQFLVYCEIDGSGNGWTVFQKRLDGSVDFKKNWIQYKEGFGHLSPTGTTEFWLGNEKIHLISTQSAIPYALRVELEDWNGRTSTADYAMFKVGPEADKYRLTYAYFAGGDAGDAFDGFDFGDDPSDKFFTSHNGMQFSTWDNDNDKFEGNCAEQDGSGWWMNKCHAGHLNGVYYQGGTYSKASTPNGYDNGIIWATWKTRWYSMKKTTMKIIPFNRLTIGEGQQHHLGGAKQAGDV
Description: (§1) The interaction between thymosin β4 and fibrin(ogen) and its fragments in the presence or absence of FXIIIa was studies by ELISA using plastic microliter plates. Wells of microliter plates were coated overnight at […] with fibrinogen and fibrin at 10 μg/mL or with the recombinant fragments of 20 μg/ml, all in 0.1 M NaHCO3 buffer, pH 8.3. Fibrin was made by addition to the wells of a mixture containing 10 μg/mL fibrinogen 1 NIH u/ml thrombin and 400 u/ml aprotinin, followed by overnight incubation at +4° C. The wells were then blocked by incubation with Super Blocker (Pierce) at 37° C. for 1 h. Following washing with TBS containing 0.05% Tween-20 (TBS-Tween), the indicated concentrations of thymosin β4, FXIII, FXIIIa(Thr) and FXIIIa(Ca) were added to the wells and incubated for 2-2.5 h at 37° C. Bound (incorporated) thymosin β4 was detected by the reaction with rabbit anti-thymosin β4 serum and peroxidase-conjugated anti-rabbit IgG. A TMB Microwell Peroxidase Substrase was added to the wells, and the incorporated thymosin β4 was measured spectrophotometrically at 450 nm.
To analyze kinetics of the incorporation of thymosin β4 into different fibrin(ogen) fragments, they were immobilized onto the wells of microliter plates (as described above, except that the concentration of all fragments was 20 μg/mL) and incubated with several concentrations of thymosin β4 in the presence of 10 μg/L thrombin-activated factor XIIIa. The incubation mixtures were inhibited every 15 min during 1 hour of incubation by the addition of iodacetamide to final concentration 10 mM. Incorporated thymosin β4 at each time point was detected with rabbit anti-thymosin β4 serum as described above. The initial rates of the reaction of incorporation (V) at different concentrations of thymosin β4 were determined from the slopes of the reaction time course plots and expressed as tangent α=A450/t (min), where A450 represents absorbance at 450 nm in optical units (o.u) which is proportional to the amount of incorporated thymosin β4. […]

fibrinogen = target: T2, fibrinogen (Homo sapiens, UniProt P02671); experiment: Solid-phase binding assay (ELISA), immobilized fibrinogen
T2 construct: purchased Enzyme Research Laboratories (South Bend, Ind.)
T2 sequence (P02671 20-644 isoform P02671-2 limits assumed): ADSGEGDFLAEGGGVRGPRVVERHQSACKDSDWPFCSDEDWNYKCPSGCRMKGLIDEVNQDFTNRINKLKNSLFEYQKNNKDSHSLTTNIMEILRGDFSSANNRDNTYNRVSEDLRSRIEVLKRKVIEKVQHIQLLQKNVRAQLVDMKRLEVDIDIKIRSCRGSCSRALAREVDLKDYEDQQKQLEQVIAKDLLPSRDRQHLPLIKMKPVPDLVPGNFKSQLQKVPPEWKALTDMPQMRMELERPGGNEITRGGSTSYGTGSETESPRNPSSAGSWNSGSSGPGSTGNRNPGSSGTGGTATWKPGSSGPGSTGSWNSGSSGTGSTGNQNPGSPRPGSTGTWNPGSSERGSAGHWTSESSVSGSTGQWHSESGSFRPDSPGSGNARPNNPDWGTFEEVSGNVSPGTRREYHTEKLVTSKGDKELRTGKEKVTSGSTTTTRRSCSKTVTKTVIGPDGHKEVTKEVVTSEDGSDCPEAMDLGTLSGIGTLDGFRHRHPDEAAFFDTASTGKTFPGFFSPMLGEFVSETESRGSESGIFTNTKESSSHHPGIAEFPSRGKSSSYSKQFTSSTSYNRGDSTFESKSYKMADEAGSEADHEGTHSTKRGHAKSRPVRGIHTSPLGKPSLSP
T2 sequence (P02675 31-491 partner): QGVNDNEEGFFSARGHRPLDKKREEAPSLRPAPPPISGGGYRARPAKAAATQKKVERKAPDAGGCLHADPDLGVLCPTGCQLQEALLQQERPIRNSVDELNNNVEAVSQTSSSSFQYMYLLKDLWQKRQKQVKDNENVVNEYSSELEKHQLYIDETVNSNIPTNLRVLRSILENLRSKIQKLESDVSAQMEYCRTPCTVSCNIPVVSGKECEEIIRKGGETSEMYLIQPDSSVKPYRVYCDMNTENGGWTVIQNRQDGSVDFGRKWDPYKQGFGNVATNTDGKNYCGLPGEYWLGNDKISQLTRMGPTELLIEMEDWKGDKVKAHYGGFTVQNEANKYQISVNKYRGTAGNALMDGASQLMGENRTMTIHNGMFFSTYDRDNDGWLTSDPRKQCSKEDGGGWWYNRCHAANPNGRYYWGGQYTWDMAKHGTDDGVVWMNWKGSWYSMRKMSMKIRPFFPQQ
T2 sequence (P02679 27-437 isoform P02679-2 partner limits assumed): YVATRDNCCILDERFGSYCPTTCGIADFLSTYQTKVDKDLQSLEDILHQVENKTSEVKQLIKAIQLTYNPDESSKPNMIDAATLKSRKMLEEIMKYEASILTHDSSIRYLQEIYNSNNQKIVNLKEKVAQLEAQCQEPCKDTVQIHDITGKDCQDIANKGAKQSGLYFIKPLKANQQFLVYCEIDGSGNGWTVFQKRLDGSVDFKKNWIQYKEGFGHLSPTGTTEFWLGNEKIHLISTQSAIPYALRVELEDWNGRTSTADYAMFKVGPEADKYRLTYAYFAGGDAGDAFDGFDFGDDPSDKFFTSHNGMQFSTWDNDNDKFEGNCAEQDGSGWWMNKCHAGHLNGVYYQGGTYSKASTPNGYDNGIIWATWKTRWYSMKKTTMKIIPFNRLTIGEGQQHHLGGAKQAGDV
Description: as §1

Substance: thymosin β4
- non-covalent interaction with γ-module (ELISA) ([1]; non-activated factor XIII or without it): no significant non-covalent interaction
- incorporation into immobilized γ-module (ELISA) ([1]; presence of factor XIIIa): incorporated effectively
- Km ([1]; thrombin-activated factor XIIIa, Lineweaver-Burk plot, read-out: apparent Michaelis constant (Km) for incorporation into the γ-module): 183 ± 29 µM
- factor XIIIa-mediated incorporation into immobilized fibrinogen (ELISA signal) (fibrinogen; factor XIII activated by CaCl2): the signal substantially increased
- non-covalent interaction with immobilized fibrinogen (ELISA signal) (fibrinogen; thymosin β4 150 μg/mL (30 μm), absence of factor XIII or non-activated factor XIII): no significant non-covalent interaction
